These results are taken from the nanobody polyreactivity screen of Harvey et al. (2022).

This data set in a line: yeast display, Sf9 membrane polyspecificity reagent, FACS + sequencing; frameworks hold sequencing errors. Summed up:
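A synthetic nanobody library was expressed on Saccharomyces cerevisiae BJ5465 by galactose induction for 36–48 hours. The library was stained for 1 hour at 4 °C with 10% biotinylated, detergent-solubilized Sf9 membrane reagent and enriched with streptavidin microbeads before FACS. Low and high (top ~1%) gates were set on anti-HA fluorescence for expression and streptavidin fluorescence for reagent binding, and each polyreactivity label reflects the gate of origin.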
Turning to “QVQLVESGGGLVQAGGSLRLSCAASGIIFYDYAMGWYRQAPGKERELVAAISGSGVGTYYADSVKGRFTISRDNAKNTVYLQMNSLKPEDTAVYYCATRYQWGGPYYRYDYWGQGTQVTVSS”, the “polyreactivity (PSR sort gate)” value is recorded as “high polyreactivity”.

As for “QVQLVESGGGLVQAGGSLRLSCAASGFIFYRYAMGWYRQAPGKERELVAAISSSGGSTYYADSVKGRFTISRDNAKNTVYFQMNSLKPEDTAVYYCNKRPQQYRPGYDYWGQGTQVTVSS”, the “polyreactivity (PSR sort gate)” value was “high polyreactivity”. “QVQLVESGGGLVQAGGSLRLSCAASGLTFYYYAMGWYRQAPGKERELVARISSGTSTYYADSVKGRFTISRDNAKNTVYLQMNCMKPEDTAVYYCTARRKLGSTHGPWGGLEYWGEGTQVTVSS”: the “polyreactivity (PSR sort gate)” value is “low polyreactivity”.

“QVQLVESGGGLVQAGGSRRLSCDASGRTFGYYAMGWYRQAPGKERELVAAISSSGGSTYYADSVKRRFTISRDNAKNTVYLQMNRLKPEDTAVYYCAADTSDTPDYYYWGPGTQVTVSS”: the “polyreactivity (PSR sort gate)” value is on record as “low polyreactivity”. The value for “QVQLVESGGGLVQAGGSLRLSCAASGSTFDQYGMGWYRQAPGKERELVAAITSVGGTNYADSVKGRFTISRDNAKNTVYLKMNSLKPEDTAVYYCAAGSVSQYDSWGQGTQVTVSS” was “low polyreactivity”.

Consider “QVQLVESGGGLVQAGGSLRLSCAASVRIFGYARGWYRQAPGKERELVAAITSSGGRTYYADSVKGLFTISRDNAKNTVYLQMNSLKPEDTAVYYCAKDASVSYSTNFRYYYWGQGTQVTVSS”, for which the “polyreactivity (PSR sort gate)” value is on record as “high polyreactivity”. Under “QVQLLESGGGLVQAGGSLRLSCAASVSIFPKNTMGWYIQAPGKERELVAAISKSGGSTYYADSVKGRFTISRDNAKNTVYLQMNSLKPEDTAVYYCAAALGLRSTSWGRRGGGGDYWGQGTQVTGSS” stands “high polyreactivity”; under “QVQLVESGGGLVQAGGSLRLSCAASGSILGTYAMGWYRQAPGKVRELVAAISSSGRTSYADSVKGRFTISRDNAKNTGYLQMNSLKPEDTAVYYCNASNYIVLINDPYAAPWLYDYWGQGTQVTVSS”, “low polyreactivity”. As to “QVQLVESGGGLVQAGGSLRVSCAASGSTFQYNAMGWYRQAPGKERELVAVITRRGGRTYYADSVKGRFTISRDNAKNSVYLQLNSLKAEDTAVYYCAAYFDYTHRFYYWGQGTQVTVSS”, the “polyreactivity (PSR sort gate)” value is reported as “high polyreactivity”. In the case of “QVQLVESGGGLVQAGGSLRLSCAASGSTFRDNAMGWYRQAPGKERELVAAISRRGGNTYYADSVKGRFTISRDNAKNTVYLQMNSLKPEDTAVYYCAAEVKTSYSYTHDGYWGQGTQVTVSS”, the “polyreactivity (PSR sort gate)” value is on record as “high polyreactivity”.

As for “QVQLVETGGGLVQAGGSHSLSCAAAGSTFSRYAMGWYRQAPGTETELVAGISWSGGNTYYADSVKGRVTISRDNAKNTVYLQMNSLKPEETAVYYCAADFLEYWVVYGWAEYEYWAQGTQVTVSS”, the “polyreactivity (PSR sort gate)” value is “low polyreactivity”.

“QGQLVESGGGLVQAGGSLRLSCAASGISLKYAMGWYRQAPGKERELVASISSRGTSTYYADSVKGRFTISRDNAMNTVYLQMNSLKPEDTAVYYCNTVPPYWWGYWYKGDHWGQGTQGTVSS”: the “polyreactivity (PSR sort gate)” value is reported as “high polyreactivity”.

Consider “QVQLVESGGGLVQAGGSLRLSCAASGSTFSPYAMGWYRQAPGKERELVAGISRGTSTNYADSVKGRFTISRDNAKNTVYLQMNSLKPVDTAVYYCAARAYHRYLPGYRVRFGDYYYWGQGTQVTVSS”, for which the “polyreactivity (PSR sort gate)” value is listed as “high polyreactivity”.

On to “QVQLVESGGGLVQAGGSLRLSCAASGRTIIVYAMGWYRQAPGKERELVASITGIGDRTYYADSVKGRFTISRDNAKNTVYLQMNSLKPEDTAVYYCAKYGRTRFYYWGQGTQVTVSS”, for which the “polyreactivity (PSR sort gate)” value is “high polyreactivity”.

Consider “QVQLVESGGGLVQAGGSLRLSCAASGLTFGYYSMGWYREAPGKERELVAAITYSGGSTYYADSVKGRFTISRDNAKNTVYLQMNSLKPEDTAVYYCAAEGPVYTTYEYWGQGTQVTVSS”, for which the “polyreactivity (PSR sort gate)” value is “low polyreactivity”.

As to “QVQLVESGGGLVQAGGSLRLSCAASGYTFWWYAMGWYRQAPGKEREFVAAIRFSGGTRTYYADSVKGRFTISRENAKYTVFLQMNSLKPDDTAVYYCAADIAFRQWQVGDFDYWGQGTQVTVSS”, the “polyreactivity (PSR sort gate)” value is on record as “low polyreactivity”. For “QVQLVESGGGLVQAGGSLRLSCAASGRIFGINAMGCYRQAPGKERELVAAINWSGGSTYYADSVKGRFTISRDNAKNTVYLQMNSLKPEDTEVYYCAAQKYKRVGYWGQVTQVTVSS”, the “polyreactivity (PSR sort gate)” value is listed as “high polyreactivity”. As for “QVQLVESGGGLVQAGGSLRLSCAASGSIFTPYAMGWSRQAPGKLRELVADISRSGSTNYADSVKGRFTISRDNAKNTVYLQMNSLKPEDTAVYYCNADFWWHWGTSYVYWGQGTQVTVSS”, the “polyreactivity (PSR sort gate)” value is on record as “high polyreactivity”.

Turning to “QVQLVESGGGLVQAGGSLRLSCAASGRTYRYNAMGWYRQAPGKERELVATITRTGSTDYADSVKGRFTISRDNAKNTVYLQMNSLKPEDTAVYYCNARGVYSGRTYYYIYDYWGQGTQVTVSS”, the “polyreactivity (PSR sort gate)” value was “high polyreactivity”.

With “QVQLVESGGALVQAGGSLRLSCAASGSTFKVYAMGWYRQAPGKERELVAAISFSGGTTYYADSVNGRFTISRDYAKNTVSLQRNSLKPEDTAVFYCAADGSTWYSYYYWGLGTQVTVSS”, the “polyreactivity (PSR sort gate)” value is “high polyreactivity”. As to “QVQLVESGGGLVQAGGSLRLSCAASGSIFIPNAMGWYRQAPGTERELVAAISLSDTTTYYADSVKGRFTISRDNAKNTVYLQMNSLKPEDTAVYYCAADYWFYPTSPDMDYWGQGTQVTVSS”, the “polyreactivity (PSR sort gate)” value is “low polyreactivity”. Under “QVQLVESGGGLVQAGGSLRLSCAASGRIFFNYAMGWYRQAPGKERELVAAITRSGGRTYYADSVKGRFTISRDNAKNTVYLQMNSLKPEDTAVYYCAADSGSRGSVAHEYWGQGTQVTVSS” stands “high polyreactivity”; under “QVQLVESGRGLLQAGGSLRLSCAASGRIFTRYAMGWYRQAPGKERELVAAISSGGGNTYYADSVKGRFTISRYNAKNTVYLQMNILKPEDTAVYYCAALRSWRKTGGAQRYWYDYWGQGTQVTVLS”, “high polyreactivity”; under “QVQLVESGGGLVQAGGSLRLSSAASGLILYSYAMGWYRQAPGKERELVADISSGGITNYADSVKGRFTISRDNAKNTVYLQMNSLKPEDTAVYYCAADTRPVNYILYDYWGQGTQVTVSS”, “low polyreactivity”.

For “QVQLVESGGGLVQAGGSLRLSCAASGITFYVNAMGWYRQAPGKERELVAAISNGGSTNYADSVKGRFTISRDNAKNTVYLQMNSLKPEDTAVYYCAARPSYGRYRYYYWGQGTQVTVSS”, the “polyreactivity (PSR sort gate)” value is reported as “high polyreactivity”.

On to “QVQLVDSGGGLVQAGGSLRLSCAASGFIFPYYAMGWYRQAPGKERELVAAITRGGRTYYADSVKGRFTISRDNAKNTVYLQMNSLKPEDTAVYYCAARAGLDGEMDYWGQGTQVTVSS”, for which the “polyreactivity (PSR sort gate)” value is on record as “high polyreactivity”. For “QVKRVESGGGLVQAGGSLRFSCADSGFTFGTYAMGWYRQAPGKEREFVAAISSNGGNTYYADSVKGRFTISRDNAKNTVYLEIHSLKPEDTAVSYCADRYPSGTRKWYCYWGQGTQVTVSS”, the “polyreactivity (PSR sort gate)” value is given as “high polyreactivity”.

Regarding “QVQLVESGGGLVQAGGSRRLSCAASGRIFRIYAMGWYRQAPGKERELVAAITWSGGSTYYADSVKGRFPISRDNAKNTVYLQMNSLKPEDTAVYYGAAKARSNKYNYWGQGTQVTVSS”, the “polyreactivity (PSR sort gate)” value was “high polyreactivity”. Under “QDQLVKSGGGLVQAGGSLLLSCAASGHTFSGYVMGWYRPAHGKERELVAAIRSGGSTYYADSVKGRFTISRDNAKKTVYLQMNSLKPEDTAVYYCAKSVTRYRTSAYGYWGQGTQVTVSS” stands “high polyreactivity”.

On to “QVQLVESGGGLVQAGGSLRLSCADSGRIFFDYAMGWYRQAPGKERELVAAISYRGGDTYYADSVKGRFTISRDNAKNTVYLQMNSLIPEDTAVYYCAATGGYYEYWGQGTQVTVSS”, for which the “polyreactivity (PSR sort gate)” value is “low polyreactivity”.

“QVQLVESGGGLVQAGGSLRLSCAASGLIFSSNAMGWYRQAPGKERELVAAISRRGGNTYYADSVKGRFTISRDNAKNTVYLQMNSLKPEDTAVYYCAIRYVGRGTSYQDYYWGLGTQVTVSS”: the “polyreactivity (PSR sort gate)” value was “high polyreactivity”. Regarding “QVQLVESGGGLVQAGGSLRLSCAASGFIIDSNAMGWYRQAPGKERELVAAIDYSGGSTYYADSVKGRFTISRDNAKNTVYLQMNSLKPEDTAFYYCAAEYHGYRYNYYPYSHYFIYEYWGQGTQVTVSS”, the “polyreactivity (PSR sort gate)” value is on record as “high polyreactivity”. As for “QVQLVESGGGLVQAGGSLRLSCAASGRIFWGSAMGWFRQAPGKERELVAAITRSGGRTYYADSVKGRFTISRDNAKNTVYLQRNSLKPDDTPVYYCAAYYWYKWGYKYGYWGQGTQVTVST”, the “polyreactivity (PSR sort gate)” value is given as “high polyreactivity”. Regarding “QVQLVESGGGLVPAGGSLRLSCAASGFIFHGYAIGWYREAPGKEMELVAAISGTGGSTYYADSVKGRFTISRDNAKNTVYLQMNSLKPEDTAVYYCNARRVRSDRRGGDYWGQGTQVTVSS”, the “polyreactivity (PSR sort gate)” value is “high polyreactivity”. For the sequence “QVQLVESGGGLVQAGGSLRLSCASSGSTFEANAMGWYRQAPGKERELVAVITWTGGSTYYADSVKGRFTISRDNAKNTLYLQMNSLKPEDTAVYYCDADGVVPGRFFWPAHEYEYWGQGTQGTVSS”, the “polyreactivity (PSR sort gate)” value was “low polyreactivity”. Turning to “QVQLQESGGGLVQAGGSLRLSCAASGTISVHASMGWYRQAPGKERELVAGITDGANTYYADSVKGRFTISRDNSKNTVYLQMNSLKPEVTAVYYCAAYYGTEVHFTYWGLGTQVTVSS”, the “polyreactivity (PSR sort gate)” value is reported as “low polyreactivity”. As to “QVQLVESGGGLVQAGGSLRLSCAASGFTFEKYVMGWYRQAPGKEREFVAAITRSGGRTYYADSVKGRFTISRDNAKNTVYLQMNSLKPEDSAVYYCAAAFSRSDTGGGSWGQGTEVTVSS”, the “polyreactivity (PSR sort gate)” value is given as “high polyreactivity”. As for “QVQLVESGGGLVQAGGSLRLSCAASGRIFRGNTMGWYRQAPGKERELVATINGRGGSTYYADSVKGRFTISRDNAKNTVYLQMNSLKPVDTAVYYCAARRGYPRFEYWGQGTQVTVSS”, the “polyreactivity (PSR sort gate)” value is on record as “high polyreactivity”.

In the case of “QVQLVESGGGLVQAGGSLRLSCAASGSIFDLYAMGWYRQAPGTERELVADISIADSTNYADSVKGRFTISRDNAKNTVYLQMNSLKPEDTAVYYCNADVWWYSYEYDYWGQGTQVTVSS”, the “polyreactivity (PSR sort gate)” value was “low polyreactivity”. Consider “QVQLVESGGGLVQAGGSLRLSCAASGSTFRYNAMGWYRQAPGKERELVAGISYRGGTTYYADSVKGRFTISRDNAKNTVYLQMNSLKPEDTAVYYCAAAASSPGGWFYYWGQGTQVTVSS”, for which the “polyreactivity (PSR sort gate)” value is “high polyreactivity”.
